Assay: soluble on expression in E. coli; label from the status in PepcDB or PDB records

| Sequence | soluble on expression in E. coli |
| --- | --- |
| SMYMSNPTVRIAFVGKYLQDAGDTYFSVLQCFEHCQIALQVRLDILYVDSEELEGPNADEARKALLGCDGIFVPGGFGNRGVDGKCAAAQVARMNNIPYFGVCLGMQVAVIELSRNVVGWSDANSEEFNKESTHQVVRIMDCDRNKMGANMHLGACDVYIVEKSSIMAKIYSKSNIVVERHRHRYEVNTAYFEDLRKAGLCISAVTDPTFSSRCRVEAVENPSLRFFLAVQFHPEFISTPMDPAPTYLSFMAAAAKKDYVWPQKCSQRRLKQA | soluble |
| MFNYSTKDANLSNKTILVTGAGAGIGRTAALTYAQLGATVILLGKTVSKLEAVYDEIVALGLAEPAIIPLDLKGATKQNYIDMSSTISSQFGHLDGVLLNASILGELTPFTQMHEQVFNDVMKVNVTAQCLLAQTLIPTLLLAPNASLVFTSSGVGSQGRAYWGQYSISKFATEGMMQVIADEYEGSNLRTNAINPGATNTNMRSCAFPAEDKDELATPEDIMPLYVYLMSDDSLEINGQTLKAQ | not soluble |
| MLNIGYPFWPSMRFKPRPFITPVRFKCLFCLDCCRGRHVYLTVSDIKRLVGSGHDPQKFLTFSIEGGNIRFVLSVREWDLGCIFHDPGTGKCTIHPIRPLICRIYPFMVSKRPLGVEGEEPVQYKGRMLWLYYDESCPGINSQEGEVITPEEIAELGVKFEEELSRTTFEDVIKVLLEHHHHHH | soluble |
| MSAIWLSGAQAFCPAPASLPVAHVQRVVDGDTLRLTDGRNVRMIGLNTPETGKKGRSAEPFAEAAKKRLQALVDKSGGQISLRVGQQGKDHYGRTLANVYGRNGDNLEAQLLSEGLGYLVAVAPNVALVDCQQSAEREARQARRGVWRNSQVQPSDKLRKGGFAVVSGKVRSVQRNRGGIWIELHGSVVLRVAPDQAFRFDMAALERLKGRQIETRGWVIDRSGRGGLKAGQSRWMIALSHPAMLSLLEHHHHHH | not soluble |
| MTDLTGILYIVATPIGNLQDITQRALETFAQVDLIAAEDTRHSGLLLSHYGIKKPFFALHDHNEQEKAHILVEKLKQGSNIALISDAGTPLISDPGFHLVRQCREAGIRVVPLPGACAAITALCASGIASDRFCFEGFLPAKSKARKDKLENIAEEDRTLIFYESTHRILDTLEDMQAVLGEERYIVLAREMTKTWETITGNTIKNLREWLLEDPNRTKGEMVLIVEGKPKSDNNDEISPQAVKALELIAEELPLKKAAAIVAELYGYKKNALYQFGLAHLEKLEHHHHHH | soluble |
| MIHLEHINLVVDDIPKALIFYQAAFPHWRIRGGGESTWYSKPRNWTHFGDDYQYIAFSDNGEGENRDLTGHQIGLAHFAFVVSDLDAIITRLTQAGFPIAKEGMEDPYRRNIYFFDAHGFEVEFVEYLSDIPAERNRYLEHHHHHH | soluble |
| MTLYPKLILDALATVRYPGTGKNLLEAEMVADNLRIDGMAVSFSLIFEKPTDPFMKSMLKAAETAIHTYVSPDVQVTITTESKQAARPEVGKLLPQVKNIIGISSGKGGVGKSTVSANLAVALAKLGYKVGLLDADIFGPSMPKMFQVEDARPYAEKINGRDLIIPVEKYGVKLLSIGFFVDPDQATLWRGGMASNALKQLIGDADWGDLDYFLIDLPPGTSDIHLTVVQTLAMTGAIVVSTPQAVALADARKGINMFTNDKVNVPILGLVENMAWFTPAELPENKYYIFGKEGAKKLAEEMNVPLLGQIPIVQSICEGGDNGTPVALDEDTVTGRAFLSLAASVVRQVDRRNVEMAPTKIVEMH | not soluble |
| YRALFEHAIDGIFIMDAEGHYLDVNPAICSAIGYTRDEFLALDWGVLSRGVDSGWAAASLARIVGGEPLREERTVWTRNGDQLTVELSAHLLPDGKILGIARDVS | soluble |
| YHLSLKQVNRLFDDDMVDFGEAALRLLDLATEDQAGEDGSITEIIERSREAIQGLPLLRRESALGYALWRDGQPLLSSLNLPPEITAQGPGFSTVEAQGTHWRVLQLNIDGFQIWISENLIYRQHTMNLL | not soluble |
| MDFECQFVCELKELAPVPALLIRTQTTMSELGSLFEAGYHDILQLLAGQGKSPSGPPFARYFGMSAGTFEVEFGFPVEGGVEGSGRVVTGLTPSGKAASSLYIGPYGEIEAVYDALMKWVDDNGFDLSGEAYEIYLDNPAETAPDQLRTRVSLMLHESLEHHHHHH | soluble |
| MAAIDAALKAGEKILSIYEDPKSDFEIERKADNSPLTIADRKAHEAIVAILNETPFPVLSEEGKHMDYAVRRGWDTLWIVDPLDGTKEFIKRNGEFTVNIALVQNAVPVMGVIYVPVKKELYFAVEGTGAYKCSGIVGLEDEGVTLQQMIEKSERMPLADARDHFIAVASRSHLTPETETYIADLKKKHGNVELISSGSSIKICLVAEGKADVYPRFAPTMEWDTAAGHAIARAAGMEVYQAGKEEPLRYNKEDLLNPWFIVEAKRER | soluble |
| MSKVIQKKNHWTSRVHECTVKRGPQGELGLTVLGGAEHGEFPYVGAVAAVEAAGLPGGGEGPRLGEGELLLEVQGVRVSGLPRYDVLGVIDSCKEAVTFKAVRQGGRLNKDLRHFLNQRFQKGSPDHELQQTIRDNLYRHAVPCTTRSPREGEVPGVDYNFLTVKEFLDLEQSGTLLEVGTYEGNYYGTPKPPSQPVSGKVITTDALHSLQSGSKQSTPKRTKSYNDMQNAGIVHAENEEEDDVPEMNSSFTADSGEQEEHTLQETALPPVNSSIIAAPITDPSQKFPQYLPLSAEDNLGPLPENWEMAYTENGEVYFIDHNTKTTSWLDPRCLNKQQKPLEECEDDEGVHTEELDSELELPAGWEKIEDPVYGIYYVDHINRKTQYENPVLEAKRKKQLEQQQQQQQQQQQQQQQQQQQQQTEEWTEDHSALVPPVIPNHPPSNPEPAREVPLQGKPFFTRNPSELKGKFIHTKLRKSSRGFGFTVVGGDEPDEFLQIKSLVLDGPAALDGKMETGDVIVSVNDTCVLGHTHAQVVKIFQSIPIGASVDLELCRGYPLPFDPDDPNTSLVTSVAILDKEPIIVNGQETYDSPASHSSKTGKVNGMKDARPSSPADVASNSSHGYPNDTVSLASSIATQPELITVHIVKGPMGFGFTIADSPGGGGQRVKQIVDSPRCRGLKEGDLIVEVNKKNVQALTHNQVVDMLVECPKGSEVTLLVQRGGLPVPKKSPKSQPLERKDSQNSSQHSVSSHRSLHTASPSHSTQVLPEFPPAEAQAPDQTDSSGQKKPDPFKIWAQSRSMYENRPMSPSPASGLSKGEREREINSTNFGECPIPDYQEQDIFLWRKETGFGFRILGGNEPGEPIYIGHIVPLGAADTDGRLRSGDELICVDGTPVIGKSHQLVVQLMQQAAKQGHVNLTVRRKVVFAVPKTENEVPSPASSHHSSNQPASLTEEKRTPQGSQNSLNTVSSGSGSTSGIGSGGGGGSGVVSTVVQPYDVEIRRGENEGFGFVIVSSVSRPEAGTTFGNACVAMPHKIGRIIEGSPADRCGKLKVGDRILAVNGCSITNKSHSDIVNLIKEAGNTVTLRIIPGDESSNATLLTNAEKIATITTTHTPSQQGTQETRNTTKPKQESQFEFKAPQATQEQDFYTVELERGAKGFGFSLRGGREYNMDLYVLRLAEDGPAERCGKMRIGDEILEINGETTKNMKHSRAIELIKNGGRRVRLFLKRGDGSVPEYAM | soluble |
| MLILGLVISCGGSKDITLPNKNVKIEGDVLTFKGKPFTGNIKMNLADKMDGYAGAMSFKDGHLDGLTDLKNDKENQQVKFTVVDGKFDGELIMKDAKQRTDIVLDIKNGAIVKYLADVQGAYKYDLSFVDNLANGTMEAQGQKFEFKDGIAKGPQGQELKLTLDPESGDLTMEAMVNGKVAGKQTIPNVLTPQYLETFIFRAVTMTNR | not soluble |
| MGSDKIHHHHHHMLSCHLTSPNLVPCETVDNRSSFQILFDHESIIKTYVPVMKLRFRQLQAFHAIVETGTVTGAAGLLGISQPGVSNLLSQLEDQAGMALFERLHGRLLPTPEAELLFAEVDTVMRGMSKVTQTMVDLKTRKLGQLQIASQHAMSFGFMPRLIARFASDRPELNISFQSQYSSKVQEWVWNGLFEIGVCEMPLLYDTLTVYPLYVETMLALHKDNPLARHEVLTPELLAGEPFIVMGQDHMTHRRLREAFQDAGVPLRTRVHSHLFKNLLSFVQEGMGVALLDRFMFDYDMQGDVITRPFRPTIRMDMCVITSKSRPMSQLGKEFLDLLLGELQHYSVEGRPLVPAERKRR | not soluble |
| IEETGTVIIAGIGRFGQIVNRLLVSNGVTTVVLDHQANQVDNMRQIGTRAYFGDATRPDMLHTAGIEHAAALVVAIDNQESSVELVKYVKHTYPKVKIIARAFDRGHGYLLRQAGADVIESETYHSALEMGGHAMKALGI | not soluble |
| MPAIKSSADLRNNYNEISTFCHNYPEPVFITKNGKGDLAVMSIEAYEGLTSRFELYSQIKEGMDDIATGNTRPFSEAMADIRSRRSRLEHHHHHH | not soluble |
| MLRDLRETDVKAICDINQEALGYTFSPEETASQLARLSQDSHHFLLGYEDAANHVLLGYVHAEVYESLYSKAGFNILALAVSPQAQGQGIGKSLLQGLEEEAKRCGYGFIRLNSANHRLGAHAFYEKVGYTCDKMQKRFIRIC | not soluble |
| MSLTEDVTSQTSESLARHSVLAEDLSQDGLTSLGAPGARVLLVWDAPNLDMGLGSILGRRPTALERPRFDALGRWLLARTAEIVAGRPGISTEPEATVFTNIAPGSAEVVRPWVDALRNVGFAVFAKPKVDEDSDVDRDMLAHIDERYREGLAALVVASADGQAFRQPLEAVARSGTPVQVLGFREHASWALASDTLEFVDLEDIAGVFREPLPRIGLDSLPEQGAWLQPFRPLSSLLTSRV | soluble |
| MTCWLRGVTATFGRPAEWPGYLSHLCGRSAAMDLGPMRKSYRGDREAFEETHLTSLDPVKQFAAWFEEAVQCPDIGEANAMCLATCTRDGKPSARMLLLKGFGKDGFRFFTNFESRKGKELDSNPFASLVFYWEPLNRQVRVEGPVKKLPEEEAECYFHSRPKSSQIGAVVSHQSSVIPDREYLRKKNEELEQLYQDQEVPKPKSWGGYVLYPQVMEFWQGQTNRLHDRIVFRRGLPTGDSPLGPMTHRGEEDWLYERLAP | soluble |
| MHSLQNVIPQQQAHIAELQVYNNKLERDLQNKIGSLTSSIEWYLRSMELDPEIKADIEQQINSIDAINPLHAFDDLESVIRNLISDYDKLFLMFKGLIQRSNYQYSFGSE | soluble |
| MSSKLVLVLNCGSSSLKFAIIDAVNGEEYLSGLAECFHLPEARIKWKMDGNKQEAALGAGAAHSEALNFIVNTILAQKPELSAQLTAIGHRIVHGGEKYTSSVVIDESVIQGIKDAASFAPLHNPAHLIGIEEALKSFPQLKDKNVAVFDTAFHQTMPEESYLYALPYNLYKEHGIRRYGAHGTSHFYVTQEAAKMLNKPVEELNIITCHLGNGGSVSAIRNGKCVDTSMGLTPLEGLVMGTRSGDIDPAIIFHLHDTLGMSVDAINKLLTKESGLLGLTEVTSDCRYVEDNYATKEDAKRAMDVYCHRLAKYIGAYTALMDGRLDAVVFTGGIGENAAMVRELSLGKLGVLGFEVDHERNLAARFGKSGFINKEGTRPAVVIPTNEELVIAQDASRLTA | soluble |
| MGSDKIHHHHHHMKEDSSLTPQEVADLLKITKYTVYEMVKRGELPAYRIGRKIRIEQRDVDAYIKQGKKLKYKDIDTLEASPRTQAARQDYLSTSPGLVICGQDLLLDILGRHLENHSQGCRAFRHNIGSFAGLLQLYQGESDMAGVHLWDSDSESYNIPYVRRMVPGIPTLIIHLAMRQQGFYVARSNPLGIKGWADLTIPGLRFINREPGCGTRVLLDEHLYQMKLDRRKINGYEREETSHLAVASAVARGTADLALGNEKAALQVRGIEFIPLQKERYELVIRKEDLDKAEIRAVLDILNSAAFKSELEGLGDYCLEETGRIVAEI | not soluble |
